Data: article PMC11940065 (2025)

Molecular target: Methionine-1-linked triubiquitin (UniProt P0CG48 1-76; P0CG48 1-76; P0CG48 1-76)
Test: MST

Sequence of Methionine-1-linked triubiquitin (P0CG48 1-228, one chain of several): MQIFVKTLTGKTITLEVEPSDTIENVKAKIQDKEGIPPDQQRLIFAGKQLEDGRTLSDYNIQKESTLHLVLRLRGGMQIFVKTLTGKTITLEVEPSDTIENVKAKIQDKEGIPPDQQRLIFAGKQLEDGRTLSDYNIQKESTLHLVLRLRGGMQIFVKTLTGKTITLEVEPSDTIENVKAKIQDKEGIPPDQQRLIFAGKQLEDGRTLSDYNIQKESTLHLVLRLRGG

Row | Kd | Binder
1 | 3.52 µM | AHD1-UBAN E444F (domain or fragment) QRLNKALEEALSIQTPPSSPPTAFGSPFGAGALLRKQELVTQNELLKQQVKIFEEDFQRERSDRERMNEEKEELKKQVEKLQAQVTLSNAQLK
2 | 5.5 µM | AHD1-UBAN E425Q (domain or fragment) QRLNKALEQALSIQTPPSSPPTAFGSPEGAGALLRKQELVTQNELLKQQVKIFEEDFQRERSDRERMNEEKEELKKQVEKLQAQVTLSNAQLK
